In US20210221899A1 (published 2021):
Substitutions are numbered along the chain they refer to.

B1: can9L12VH_G109A (antibody, V domains shown)
VH: EVQLVESGGDLVKPGGSLRLSCVASGFTFSSHGMHWVRQSPGKGLQWVAVINSGGSSTYYTDAVKGRFTISRDNAKNTVYLQMNSLRAEDTAMYYCAKESVGGWEQLVAPHFDYWGQGTLVIVSS
VL: QSVLTQPTSVSGSLGQRVTISCSGSTNNIGILGASWYQLFPGKAPKLLVYGNGNRPSGVPDRFSGADSGDSVTLTITGLQAEDEADYYCQSFDTTLGAHVFGGGTHLTVL
B2: can9L12VH_K98A (antibody, V domains shown)
VH: B1 VH with K98A, A109G
VL: B1 VL
B3: can9L12VH_S57A (antibody, V domains shown)
VH: B1 VH with S57A, A109G
VL: B1 VL
B4: can9L12VH_S100A (antibody, V domains shown)
VH: B1 VH with S100A, A109G
VL: B1 VL
B5: can9L12VH_T28A (antibody, V domains shown)
VH: B1 VH with T28A, A109G
VL: B1 VL
B6: can9L12VL_G33A (antibody, V domains shown)
VH: B1 VH with A109G
VL: B1 VL with G33A
B7: can9L12VH_Q106A (antibody, V domains shown)
VH: B1 VH with Q106A, A109G
VL: B1 VL
B8: can9L12VH_H111A (antibody, V domains shown)
VH: B1 VH with A109G, H111A
VL: B1 VL
B9: can9L12VH_H32A (antibody, V domains shown)
VH: B1 VH with H32A, A109G
VL: B1 VL
B10: can9L12VL_G51A (antibody, V domains shown)
VH: B1 VH with A109G
VL: B1 VL with G51A
B11: can9L12VH_V101A (antibody, V domains shown)
VH: B1 VH with V101A, A109G
VL: B1 VL
B12: can9L12VH_S31A (antibody, V domains shown)
VH: B1 VH with S31A, A109G
VL: B1 VL
B13: can9L12VH_V108A (antibody, V domains shown)
VH: B1 VH with V108A, A109G
VL: B1 VL
B14: can9L12VH_W104A (antibody, V domains shown)
VH: B1 VH with W104A, A109G
VL: B1 VL
B15: can9L12VH_T58A (antibody, V domains shown)
VH: B1 VH with T58A, A109G
VL: B1 VL
B16: can9L12VH_L107A (antibody, V domains shown)
VH: B1 VH with L107A, A109G
VL: B1 VL
B17: can9L12VH_S56A (antibody, V domains shown)
VH: B1 VH with S56A, A109G
VL: B1 VL
B18: can9L12VL_D93A (antibody, V domains shown)
VH: B1 VH with A109G
VL: B1 VL with D93A
B19: can9L12VH_P110A (antibody, V domains shown)
VH: B1 VH with A109G, P110A
VL: B1 VL
B20: can9L12VH_S30A (antibody, V domains shown)
VH: B1 VH with S30A, A109G
VL: B1 VL
B21: can9L12VL_G30A (antibody, V domains shown)
VH: B1 VH with A109G
VL: B1 VL with G30A
B22: can9L12VH_S53A (antibody, V domains shown)
VH: B1 VH with S53A, A109G
VL: B1 VL
B23: can9L12VL_F92A (antibody, V domains shown)
VH: B1 VH with A109G
VL: B1 VL with F92A
B24: can9L12VH_Y114A (antibody, V domains shown)
VH: B1 VH with A109G, Y114A
VL: B1 VL
B25: can9L12VH_N52A (antibody, V domains shown)
VH: B1 VH with N52A, A109G
VL: B1 VL

Biological target: T1, human NGF (human, UniProt P01138 122-241)
T1 construct: also called human Nerve Growth Factor; hN
T1 chain: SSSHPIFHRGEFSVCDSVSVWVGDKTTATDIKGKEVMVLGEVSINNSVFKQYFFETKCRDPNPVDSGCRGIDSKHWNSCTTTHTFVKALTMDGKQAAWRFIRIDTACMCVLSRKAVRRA
Test: SPR (Biacore T200), 100 nM mAb on NGF chip, similarity to parent mAb
From the text: (§1) The region of an antibody responsible for antigen recognition represents the paratope. A paratope is created by a combination of amino acids in the complementarity determining regions (CDRs) of both the heavy and light chain variable regions. The binding between antibody and antigen is often mediated by side chains of CDR residues with side chains or carbohydrate moieties of the antigen. To help define critical side chains involved in antibody recognition alanine scanning mutagenesis was performed on each CDR residue in both the heavy and light chain, the technique as described by Cunningham and Wells (1989) Science, Vol. 244, Issue 4908, pp. 1081-1085. These mutants were then individually tested for the ability to NGF using the Biacore. […] Values were then compared to the wild type antibodies and are represented in the tables as a percent of wild type binding. The data presented in Tables 4 and 5 below are shown as a “percent similarity score” compared to wild type.
(§2) The mean response unit of four replicates of the parent mAb+/−3 standard deviations was used to generate parameters to define a threshold of response units comprising both the on- and off-rates antibody binding. The percentage of data points for each mutant fell within this threshold was then used to define a “% similarity score”. […] Results from substitution of alanine at each CDR position

Row | Binder | Percent Similarity Score (KD on hN) [%]
1 | B1 | 40
2 | B2 | 8.58
3 | B3 | 33.4
4 | B4 | 42.1
5 | B5 | 96.6
6 | B6 | 2.3
7 | B7 | 100
8 | B8 | 2.79
9 | B9 | 13.8
10 | B10 | 100
11 | B11 | 5.29
12 | B12 | 99.9
13 | B13 | 56.3
14 | B14 | 5.2
15 | B15 | 100
16 | B16 | 1.82
17 | B17 | 40.5
18 | B18 | 3.3
19 | B19 | 2.1
20 | B20 | 31.2
21 | B21 | 16.2
22 | B22 | 100
23 | B23 | 2.7
24 | B24 | 99.9
25 | B25 | 38.2

Biological target: T2, canine NGF (canine, UniProt Q29074 110-229 (pig entry), limits assumed)
T2 construct: The protein was secreted from CHO cells and purified; also called cNGF; canine β-NGF
T2 chain: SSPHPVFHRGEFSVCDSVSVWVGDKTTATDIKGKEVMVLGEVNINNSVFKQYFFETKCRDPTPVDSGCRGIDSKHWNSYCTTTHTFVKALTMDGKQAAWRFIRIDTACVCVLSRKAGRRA
Test: as above
From the text: as §1, §2

Row | Binder | Percent Similarity Score (KD on cN) [%]
26 | B1 | 100
27 | B2 | 22.8
28 | B3 | 89.9
29 | B4 | 76.2
30 | B5 | 100
31 | B6 | 7.5
32 | B7 | 100
33 | B8 | 10.1
34 | B9 | 38.2
35 | B10 | 100
36 | B11 | 13.6
37 | B12 | 100
38 | B13 | 93.2
39 | B14 | 19.2
40 | B15 | 100
41 | B16 | 5.45
42 | B17 | 96.8
43 | B18 | 11
44 | B19 | 6.48
45 | B20 | 94.7
46 | B21 | 53.9
47 | B22 | 100
48 | B23 | 7.2
49 | B24 | 100
50 | B25 | 85.8

These binders were tested against T3, rat NGF (rat, UniProt P25427 122-241) in the same assay as above.
T3 construct: also called rN
T3 sequence (P25427 122-241 limits assumed): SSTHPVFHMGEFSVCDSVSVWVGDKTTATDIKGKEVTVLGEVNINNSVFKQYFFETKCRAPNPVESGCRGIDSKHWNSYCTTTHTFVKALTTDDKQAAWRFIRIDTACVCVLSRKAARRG
From the text: as §1, §2

Row | Binder | Percent Similarity Score (KD on rN) [%]
51 | B1 | 62
52 | B2 | 7.92
53 | B3 | 100
54 | B4 | 51.6
55 | B5 | 100
56 | B6 | 2.9
57 | B7 | 99.9
58 | B8 | 3.25
59 | B9 | 51.5
60 | B10 | 99.9
61 | B11 | 4.27
62 | B12 | 100
63 | B13 | 62
64 | B14 | 8.2
65 | B15 | 99.9
66 | B16 | 2
67 | B17 | 96
68 | B18 | 3.7
69 | B19 | 2.6
70 | B20 | 99.9
71 | B21 | 13.8
72 | B22 | 99.9
73 | B23 | 2.3
74 | B24 | 99.2
75 | B25 | 19.7
